Test results: patent US20260069689A1 (Regeneron, published 2026)

What was measured:
[1] = molecular target: T1, SARS-COV-2 RBD extracellular domain expressed with a C-terminal mouse IgG2a Fc (SARS-CoV-2); test: Biacore SPR, mAb captured on anti-hFc, 25 C
[2] = molecular target: T1, SARS-COV-2 RBD extracellular domain …; test: Biacore SPR, mAb captured on anti-hFc, 37 C

B1: mAb15159 (antibody, V domains shown)
VH: EVQLVESGGGLVQPGGSLRLSCAASGITVSSNYMTWVRQAPGKGLEWVSLIYSGGSTFYADSVRGRFTISRDNSKNTLYLQMNSLRAEDTAVYYCARDLVVYGMDVWGQGTTVTVSS
VL: DIQLTQSPSSLSASVGDRVTITCRASQGISSYLAWYQQKPGKAPKLLIYAASTLQSGVPSRFSGSGSGTDFTLTISSLQPEDFATYYCQHLNSDPHTFGQGTKLEIKR
Kd [1]: 0.0172 nM | koff [1]: 1.19e-05 s⁻¹ | kon [1]: 691000 M⁻¹ s⁻¹ | t½ [1]: 971 min | Kd [2]: 0.135 nM | koff [2]: 2.99e-05 s⁻¹ | kon [2]: 220000 M⁻¹ s⁻¹ | t½ [2]: 386 min

B2: mAb15170 (antibody, V domains shown)
VH: EVQLVESGGGLVQPGGSLRLSCAATGITVSSNYMSWVRQAPGKGLEWVSLIYSGGSTFYADSVKGRFTISRHNSKNTLYLQMSSLRAEDTAVYYCARDLVDFGMDVWGQGTTVTVSS
VL: DIQLTQSPSSLSASVGDRVTITCRASQGISNYLAWYQQKPGKAPKLLIYAASTLQSGVPSRFSGSGSGTDFTLTISSLQPEDFGTYYCQQLNSDSPTFGQGTKVEIKR
Kd [1]: ≤ 0.0295 nM | koff [1]: ≤ 1e-05 s⁻¹ | kon [1]: 339000 M⁻¹ s⁻¹ | t½ [1]: 1160 min | Kd [2]: 0.091 nM | koff [2]: 2.41e-05 s⁻¹ | kon [2]: 260000 M⁻¹ s⁻¹ | t½ [2]: 480 min

B3: mAb15157 (antibody, V domains shown)
VH: EVQLVESGGALVQPGGSLRLSCAASGFPFTIYAMTWVRQAPGKGLEWVSVITGSGDSTYYADSVKGRFTISRDNSKNTLYLQMNSLRAEDTAVYYCVKTGEGFFYYYYGMDVWGQGTTVTVSS
VL: QSVLTQPPSVSAAPGQKVTISCSGSSSNIGNSYISWYQQLPGTAPKLLIYVNNKRPSGIPDRFSGSKSGTSATLGITGLQTGDEADYYCGTWDSSLSAGVFGSGTKVTVLG
Kd [1]: 0.187 nM | koff [1]: 6.67e-05 s⁻¹ | kon [1]: 357000 M⁻¹ s⁻¹ | t½ [1]: 173 min | Kd [2]: 0.116 nM | koff [2]: 0.000107 s⁻¹ | kon [2]: 922000 M⁻¹ s⁻¹ | t½ [2]: 108 min

B4: mAb15162 (antibody, V domains shown)
VH: EVQLVETGGGLIQPGGSLRLSCAASEFIVSRNYMSWVRQAPGKGLEWVSLIYSGGSTYYADSVKGRFTISRDNSKNILYLQMNSLRAEDTAVYYCARDRGGISDYWGQGTLVTVSS
VL: DIQMTQSPSSLSASVGDRVTITCQASQDINKYLNWFQQKPGKAPKLLIYDASNLETGVPSRFSGSGSGTDFTFTISSLQPEDIATYYCQQYDNLPRTFGQGTKLEIKR
Kd [1]: 0.179 nM | koff [1]: 0.00023 s⁻¹ | kon [1]: 1.29e+06 M⁻¹ s⁻¹ | t½ [1]: 50.2 min | Kd [2]: 0.5 nM | koff [2]: 0.000101 s⁻¹ | kon [2]: 200000 M⁻¹ s⁻¹ | t½ [2]: 115 min

B5: mAb15164 (antibody, V domains shown)
VH: EVQLVESGGGLVQPGGSLRLSCAASGFAVSSNYMTWVRQAPGKGLEWVATIYSGDSTYYADSVKGRFTISRHNSKNTLSLQMNSLRADDTAIYYCARLSGVLSGTYNGAFDIWGQGTMVTVSS
VL: QSALTQPASVSGSPGQSITISCTGTSSDFGNYNIVSWYQQHPGQAPKVMIYEGNKRPSGVSNRFSGSKSGHTASLTISGLQAEDEADYYCSSYAGSSTWVFGGGTKLTVLG
Kd [1]: 0.0569 nM | koff [1]: 2.12e-05 s⁻¹ | kon [1]: 372000 M⁻¹ s⁻¹ | t½ [1]: 546 min | Kd [2]: 0.0518 nM | koff [2]: 9.4e-05 s⁻¹ | kon [2]: 1.82e+06 M⁻¹ s⁻¹ | t½ [2]: 123 min

B6: mAb15166 (antibody, V domains shown)
VH: EVQLVESGGGLVQPGGSLRLSCAASGFTVTSNYMSWVRQAPGKGLEWVSAIYSGESTYYADSVKGRFTISRDSSKNTLYLQMNSLRVEDTAVYYCASIHDYSNYVGGFDPWGQGTLVTVSS
VL: QSALTQPASVSGSPGQSITISCTGPSSDFGSYNLVSWYQQHPGKAPKLMIYEGTKRPSGVSNRFSGSKSGNTASLTISGLQAEDEADYYCSSYAGSSTWVFGGGTKLTVLG
Kd [1]: 0.016 nM | koff [1]: 1.62e-05 s⁻¹ | kon [1]: 1.02e+06 M⁻¹ s⁻¹ | t½ [1]: 713 min | Kd [2]: 0.126 nM | koff [2]: 9.8e-05 s⁻¹ | kon [2]: 781000 M⁻¹ s⁻¹ | t½ [2]: 118 min

B7: mAb15165 (antibody, V domains shown)
VH: EVQLVESGGGLVQPGGSLRLSCAASGFTVSSNYMSWVRQAPGKGLEWVSAIYSGDSTYYADSVKGRFTISKDNSKNTLYLQMNSLRGEDTAVYYCARLGGALQAYDGAFDYWGQGTLATVSS
VL: QSALTQPASVSGSPGQSITISCTGTSSDFGSYNLVSWYQQHPGKAPKLMIYEGNKRPSGVSIRFSGSKSGNTASLTISGLQAEDEADYYCSSYAGSSTWVFGGGTKLTVLG
Kd [1]: 0.129 nM | kon [1]: 301000 M⁻¹ s⁻¹ | t½ [1]: 298 min | Kd [2]: 0.45 nM | koff [2]: 4.55e-05 s⁻¹ | kon [2]: 100000 M⁻¹ s⁻¹ | t½ [2]: 254 min

B8: mAb15163 (antibody, V domains shown)
VH: EVQLVETGGGLIQPGESLRLSCAASGFIVSTNYMNWVRQAPGKGLEWVSVIYRGGSTYYADSVKGRFTISRDNSKNTLFLQMNSLRAEDTAVYYCARGHEDFDYDTPASGAFDIWGQGTMVTVSS
VL: QSALTQPPSASGSPGQSVTISCTGTSSDVGGHNYVSWYQQHPGKAPKVMIYEVSKRPSGVPDRFSGSKSGNTASLTVSGLQAEDEADYYCSSYAGSNKFVFGTGTKVTVLG
Kd [1]: ≤ 0.0108 nM | koff [1]: ≤ 1e-05 s⁻¹ | kon [1]: 930000 M⁻¹ s⁻¹ | t½ [1]: 1160 min | Kd [2]: 0.0601 nM | koff [2]: 2.5e-05 s⁻¹ | kon [2]: 416000 M⁻¹ s⁻¹ | t½ [2]: 462 min

B9: mAb15160 (antibody, V domains shown)
VH: EVQLVESGGGLVQPGGSLRLSCSASGFTFSRYAMYWVRQAPGKGLEYVSAISSDGGSTYDADSVKGRFTISRANSKNTLYLQMSSLRAEDTAVYYCVKGLRELLYYYYGMDVWGQGTTVTVSS
VL: DIQMTQSPSSLSASVGDRVTITCRAGQSISSFLNWYQQKPGKAPKLLIYAASSLQSGVPSRFSGSGSGTDFTLTISSLQPEDFATYYCQQSYITPFTFGPGTKVDIKR
Kd [1]: 0.0406 nM | koff [1]: 1.05e-05 s⁻¹ | kon [1]: 258000 M⁻¹ s⁻¹ | t½ [1]: 1100 min | Kd [2]: 0.181 nM | koff [2]: 7.9e-05 s⁻¹ | kon [2]: 436000 M⁻¹ s⁻¹ | t½ [2]: 146 min

B10: mAb15158 (antibody, V domains shown)
VH: EVQLVESGGGLVQPGGSLRLSCAASGFSFSSNWMSWVRQAPGKGLEWVGNINQDGSEKYYVDSVEGRFTISRDNAKKSLYLQMNSLRAEDTAVYYCARDLGVLWFGDFVDWGQGALVTVSS
VL: DIQMTQSPSSLSASVGDRVTITCRASQAISNSLAWYQQKPGKAPKLLLYAASTLESGVPSRFSGSGSGTDYTLTISSLQPEDFATYYCLQYYGSPRTFGQGTKVEIKR
Kd [1]: ≤ 0.0221 nM | koff [1]: ≤ 1e-05 s⁻¹ | kon [1]: 453000 M⁻¹ s⁻¹ | t½ [1]: 1160 min | Kd [2]: 0.17 nM | koff [2]: 2.9e-05 s⁻¹ | kon [2]: 171000 M⁻¹ s⁻¹ | t½ [2]: 398 min

B11: mAb15151 (antibody, V domains shown)
VH: QVQLVESGGGVVQPGRSLRLSCAASGFVFNSYGMHWVRQAPGKGLEWVAVLWYEGSKNYYADSVKGRFTISRDNSKNTLYLQMNSLRAEDTAVYYCARHGSGSFFGYYLDYWGQGTLVTVSS
VL: DIQMTQSPSSLSASVGDRVTITCRASHNINDFLNWYQQKPGKAPRLLIYAASSLQSGVPSRFSGSGSGTDFTLTISSLQPEDFATYYCQESYTTPPTFGQGTKLEIKR
Kd [1]: 0.00338 nM | koff [1]: 3.12e-05 s⁻¹ | kon [1]: 9.24e+06 M⁻¹ s⁻¹ | t½ [1]: 370 min | Kd [2]: 0.85 nM | koff [2]: 0.0031 s⁻¹ | kon [2]: 3.7e+06 M⁻¹ s⁻¹ | t½ [2]: 3.7 min

B12: mAb15161 (antibody, V domains shown)
VH: EVQLVESGGGLVQPGGSLRLSCAASGFTFSSYEMNWVRQAPGKGLEWVSYISSSGSILYYADSVKGRFTASRDNAKNSLYLQMNSLRAEDTGVYYCARREYQLLRPFEFWGQGTLVTVSS
VL: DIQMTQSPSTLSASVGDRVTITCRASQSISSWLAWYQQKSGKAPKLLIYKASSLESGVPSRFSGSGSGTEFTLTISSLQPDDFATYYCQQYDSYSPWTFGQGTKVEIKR
Kd [1]: 0.0119 nM | koff [1]: 1.26e-05 s⁻¹ | kon [1]: 1.06e+06 M⁻¹ s⁻¹ | t½ [1]: 914 min | Kd [2]: 0.0469 nM | koff [2]: 4.9e-05 s⁻¹ | kon [2]: 1.05e+06 M⁻¹ s⁻¹ | t½ [2]: 236 min

B13: mAb15156 (antibody, V domains shown)
VH: QLQLQESGPGLVKSSETLSLTCTVSASITGSTYYWGWIRQPPGKGLEWIGSIYYSGTTYYKASLKSRVTISVDTSKNQFSLKLTSVTVADTAVYYCVSHLLGNYHKYGMDVWGQGTTVTVSS
VL: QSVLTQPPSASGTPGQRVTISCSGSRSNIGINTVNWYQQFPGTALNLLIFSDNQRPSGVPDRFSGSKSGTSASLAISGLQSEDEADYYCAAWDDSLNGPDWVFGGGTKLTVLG
Kd [1]: 0.0369 nM | koff [1]: 5.22e-05 s⁻¹ | kon [1]: 1.41e+06 M⁻¹ s⁻¹ | t½ [1]: 221 min | Kd [2]: 0.63 nM | koff [2]: 0.000112 s⁻¹ | kon [2]: 178000 M⁻¹ s⁻¹ | t½ [2]: 103 min
